# According to IntAct's records for PubMed 29892012:
# B1: Atos homolog protein B (Homo sapiens), Q7L5A3 (parent)
# chain: MRHVQAEPSPSSEPEAGPSQPPVRQGALQGGLLMGYSPAGGATSPGVYQVSIFSPPAGTSEPHRALKRQAPSTEGPRELKRGPGLGAREGLPPEEPSTVGLLGPEGPGLGLGVASQHFSHRGLCVVEQRSSVTSSWTSGAWSPPCPPSNASCNTLHTRDWASPDPGGQGSLGESPGPAPPGQLHTLDTDLHSLAQIGGKSPVAGVGNGGSLWPRESPGTANGHSPEHTPPGPGPPGPCPTKRRLLPAGEAPDVSSEEEGPAPRRRRGSLGHPTAANSSDAKATPFWSHLLPGPKEPVLDPTDCGPMGRRLKGARRLKLSPLRSLRKGPGLLSPPSASPVPTPAVSRTLLGNFEESLLRGRFAPSGHIEGFTAEIGASGSYCPQHVTLPVTVTFFDVSEQNAPAPFLGIVDLNPLGRKGYSVPKVGTVQVTLFNPNQTVVKMFLVTFDFSDMPAAHMTFLRHRLFLVPVGEEGNANPTHRLLCYLLHLRFRSSRSGRLSLHGDIRLLFSRRSLELDTGLPYELQAVTEAPHNPRYSPLP
# B2: E3 ubiquitin-protein ligase LNX (Homo sapiens), Q8TBB1 (parent)
# chain: MNQPESANDPEPLCAVCGQAHSLEENHFYSYPEEVDDDLICHICLQALLDPLDTPCGHTYCTLCLTNFLVEKDFCPMDRKPLVLQHCKKSSILVNKLLNKLLVTCPFREHCTQVLQRCDLEHHFQTSCKGASHYGLTKDRKRRSQDGCPDGCASLTATAPSPEVSAAATISLMTDEPGLDNPAYVSSAEDGQPAISPVDSGRSNRTRARPFERSTIRSRSFKKINRALSVLRRTKSGSAVANHADQGRENSENTTAPEVFPRLYHLIPDGEITSIKINRVDPSESLSIRLVGGSETPLVHIIIQHIYRDGVIARDGRLLPGDIILKVNGMDISNVPHNYAVRLLRQPCQVLWLTVMREQKFRSRNNGQAPDAYRPRDDSFHVILNKSSPEEQLGIKLVRKVDEPGVFIFNVLDGGVAYRHGQLEENDRVLAINGHDLRYGSPESAAHLIQASERRVHLVVSRQVRQRSPDIFQEAGWNSNGSWSPGPGERSNTPKPLHPTITCHEKVVNIQKDPGESLGMTVAGGASHREWDLPIYVISVEPGGVISRDGRIKTGDILLNVDGVELTEVSRSEAVALLKRTSSSIVLKALEVKEYEPQEDCSSPAALDSNHNMAPPSDWSPSWVMWLELPRCLYNCKDIVLRRNTAGSLGFCIVGGYEEYNGNKPFFIKSIVEGTPAYNDGRIRCGDILLAVNGRSTSGMIHACLARLLKELKGRITLTIVSWPGTFL
# partner: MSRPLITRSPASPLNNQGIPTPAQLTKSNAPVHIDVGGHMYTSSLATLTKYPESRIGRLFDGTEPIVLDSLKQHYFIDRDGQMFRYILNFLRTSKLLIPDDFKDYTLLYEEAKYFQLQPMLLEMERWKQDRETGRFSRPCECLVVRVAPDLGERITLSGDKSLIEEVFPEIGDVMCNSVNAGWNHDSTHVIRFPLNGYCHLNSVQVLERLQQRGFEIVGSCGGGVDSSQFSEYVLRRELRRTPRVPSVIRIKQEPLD
# B3: Myotubularin-related protein 9 (Homo sapiens), Q96QG7 (parent)
# chain: MEFAELIKTPRVDNVVLHRPFYPAVEGTLCLTGHHLILSSRQDNTEELWLLHSNIDAIDKRFVGSLGTIIIKCKDFRIIQLDIPGMEECLNIASSIEALSTLDSITLMYPFFYRPMFEVIEDGWHSFLPEQEFELYSSATSEWRLSYVNKEFAVCPSYPPIVTVPKSIDDEALRKVATFRHGGRFPVLSYYHKKNGMVIMRSGQPLTGTNGRRCKEDEKLINATLRAGKRGYIIDTRSLNVAQQTRAKGGGFEQEAHYPQWRRIHKSIERYHILQESLIKLVEACNDQTHNMDRWLSKLEASNWLTHIKEILTTACLAAQCIDREGASILIHGTEGTDSTLQVTSLAQIILEPRSRTIRGFEALIEREWLQAGHPFQQRCAQSAYCNTKQKWEAPVFLLFLDCVWQILRQFPCSFEFNENFLIMLFEHAYASQFGTFLGNNESERCKLKLQQKTMSLWSWVNQPSELSKFTNPLFEANNLVIWPSVAPQSLPLWEGIFLRWNRSSKYLDEAYEEMVNIIEYNKELQAKVNILRRQLAELETEDGMQESP
# partner: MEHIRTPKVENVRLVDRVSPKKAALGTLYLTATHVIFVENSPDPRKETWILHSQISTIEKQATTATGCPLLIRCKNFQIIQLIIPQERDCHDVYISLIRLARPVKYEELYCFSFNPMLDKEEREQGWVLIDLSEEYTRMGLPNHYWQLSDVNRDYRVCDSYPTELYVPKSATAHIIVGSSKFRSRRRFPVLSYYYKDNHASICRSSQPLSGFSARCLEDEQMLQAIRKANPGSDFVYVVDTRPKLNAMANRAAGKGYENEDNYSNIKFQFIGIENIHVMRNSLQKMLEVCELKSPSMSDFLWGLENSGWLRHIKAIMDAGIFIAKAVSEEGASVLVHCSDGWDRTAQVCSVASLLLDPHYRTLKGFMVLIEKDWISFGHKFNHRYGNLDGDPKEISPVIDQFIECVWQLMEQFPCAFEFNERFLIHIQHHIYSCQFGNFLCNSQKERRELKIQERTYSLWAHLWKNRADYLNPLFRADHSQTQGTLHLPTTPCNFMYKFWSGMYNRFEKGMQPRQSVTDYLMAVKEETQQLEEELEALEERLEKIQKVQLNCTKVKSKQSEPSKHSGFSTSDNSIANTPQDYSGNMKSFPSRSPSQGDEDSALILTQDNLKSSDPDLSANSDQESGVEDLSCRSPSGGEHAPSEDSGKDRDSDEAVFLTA
# B4: BRCA1-A complex subunit RAP80 (Homo sapiens), Q96RL1 (parent)
# chain: MPRRKKKVKEVSESRNLEKKDVETTSSVSVKRKRRLEDAFIVISDSDGEEPKEENGLQKTKTKQSNRAKCLAKRKIAQMTEEEQFALALKMSEQEAREVNSQEEEEEELLRKAIAESLNSCRPSDASATRSRPLATGPSSQSHQEKTTDSGLTEGIWQLVPPSLFKGSHISQGNEAEEREEPWDHTEKTEEEPVSGSSGSWDQSSQPVFENVNVKSFDRCTGHSAEHTQCGKPQESTGRGSAFLKAVQGSGDTSRHCLPTLADAKGLQDTGGTVNYFWGIPFCPDGVDPNQYTKVILCQLEVYQKSLKMAQRQLLNKKGFGEPVLPRPPSLIQNECGQGEQASEKNECISEDMGDEDKEERQESRASDWHSKTKDFQESSIKSLKEKLLLEEEPTTSHGQSSQGIVEETSEEGNSVPASQSVAALTSKRSLVLMPESSAEEITVCPETQLSSSETFDLEREVSPGSRDILDGVRIIMADKEVGNKEDAEKEVAISTFSSSNQVSCPLCDQCFPPTKIERHAMYCNGLMEEDTVLTRRQKEAKTKSDSGTAAQTSLDIDKNEKCYLCKSLVPFREYQCHVDSCLQLAKADQGDGPEGSGRACSTVEGKWQQRLKNPKEKGHSEGRLLSFLEQSEHKTSDADIKSSETGAFRVPSPGMEEAGCSREMQSSFTRRDLNESPVKSFVSISEATDCLVDFKKQVTVQPGSRTRTKAGRGRRRKF
# partner: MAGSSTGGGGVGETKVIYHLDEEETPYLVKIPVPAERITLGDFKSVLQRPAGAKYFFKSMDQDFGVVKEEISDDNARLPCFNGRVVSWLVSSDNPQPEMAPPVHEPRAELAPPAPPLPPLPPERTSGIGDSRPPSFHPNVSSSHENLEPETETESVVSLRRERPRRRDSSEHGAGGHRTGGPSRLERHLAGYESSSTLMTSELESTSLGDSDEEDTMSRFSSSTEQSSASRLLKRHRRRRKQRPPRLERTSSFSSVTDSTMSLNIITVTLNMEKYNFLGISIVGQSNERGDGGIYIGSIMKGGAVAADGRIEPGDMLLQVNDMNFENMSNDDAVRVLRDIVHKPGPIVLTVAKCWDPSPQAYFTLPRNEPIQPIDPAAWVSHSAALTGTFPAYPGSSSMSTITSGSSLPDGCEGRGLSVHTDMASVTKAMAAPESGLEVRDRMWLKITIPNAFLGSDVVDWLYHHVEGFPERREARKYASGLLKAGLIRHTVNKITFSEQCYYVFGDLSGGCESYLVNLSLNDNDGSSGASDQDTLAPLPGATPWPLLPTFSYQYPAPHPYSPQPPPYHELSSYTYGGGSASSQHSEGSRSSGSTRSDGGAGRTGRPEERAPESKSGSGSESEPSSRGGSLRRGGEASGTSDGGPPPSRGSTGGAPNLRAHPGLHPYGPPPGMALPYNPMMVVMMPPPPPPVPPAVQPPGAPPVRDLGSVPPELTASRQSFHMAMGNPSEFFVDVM
# Variants of: B1
# Conditions: with mdfi_human MDFI
row,effect of a mutation on the interaction,Variant
1,with no effect,C381Y

# Variants of: B1
# Conditions: with ikzf1_human IKZF1, Q13422
# Chain of ikzf1_human IKZF1, Q13422 (Q13422 whole entry): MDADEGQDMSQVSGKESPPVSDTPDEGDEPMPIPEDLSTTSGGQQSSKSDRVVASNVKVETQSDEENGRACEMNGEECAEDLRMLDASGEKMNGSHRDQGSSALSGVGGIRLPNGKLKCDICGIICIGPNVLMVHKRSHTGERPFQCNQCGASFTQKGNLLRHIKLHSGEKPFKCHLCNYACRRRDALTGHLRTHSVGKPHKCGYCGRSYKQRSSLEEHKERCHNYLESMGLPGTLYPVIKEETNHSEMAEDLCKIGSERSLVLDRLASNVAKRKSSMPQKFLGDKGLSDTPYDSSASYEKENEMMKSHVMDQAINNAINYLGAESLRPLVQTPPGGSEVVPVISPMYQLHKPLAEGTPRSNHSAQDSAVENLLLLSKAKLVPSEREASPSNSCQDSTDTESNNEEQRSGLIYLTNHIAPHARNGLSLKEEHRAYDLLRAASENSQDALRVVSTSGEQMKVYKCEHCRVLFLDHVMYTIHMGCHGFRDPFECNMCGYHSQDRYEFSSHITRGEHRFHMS
row,effect of a mutation on the interaction,Variant
1,disrupting interaction strength,C381Y

# Variants of: B1
# Conditions: with dnja3_human DNAJA3, Q96EY1
# Chain of dnja3_human DNAJA3, Q96EY1 (Q96EY1 whole entry): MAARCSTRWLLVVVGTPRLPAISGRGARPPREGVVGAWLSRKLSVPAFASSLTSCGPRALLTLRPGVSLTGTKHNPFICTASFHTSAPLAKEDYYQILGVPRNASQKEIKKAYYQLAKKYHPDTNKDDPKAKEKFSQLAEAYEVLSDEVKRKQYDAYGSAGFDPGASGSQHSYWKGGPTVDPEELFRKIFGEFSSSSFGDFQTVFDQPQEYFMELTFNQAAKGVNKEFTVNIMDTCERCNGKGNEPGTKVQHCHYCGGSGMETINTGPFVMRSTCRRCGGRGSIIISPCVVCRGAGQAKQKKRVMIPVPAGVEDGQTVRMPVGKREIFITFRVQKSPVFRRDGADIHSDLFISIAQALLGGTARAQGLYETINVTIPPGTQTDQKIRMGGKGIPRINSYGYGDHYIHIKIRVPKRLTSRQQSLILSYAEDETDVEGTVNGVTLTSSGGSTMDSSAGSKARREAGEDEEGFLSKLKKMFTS
row,effect of a mutation on the interaction,Variant
1,disrupting interaction strength,C381Y

# Variants of: B2
# Conditions: with kctd1_human KCTD1, Q719H9
row,effect of a mutation on the interaction,Variant
1,disrupting interaction strength,E295K

# Variants of: B3
# Conditions: with mtmr7_human MTMR7, Q9Y216
row,effect of a mutation on the interaction,Variant
1,with no effect,R359S

# Variants of: B4
# Conditions: with dvl2_human DVL2, O14641
row,effect of a mutation on the interaction,Variant
1,disrupting interaction strength,R34H

# Variants of: B4
# Conditions: with dvl2_human DVL2, O14641
# Remark: another data set of the same source
row,effect of a mutation on the interaction,Variant
1,with no effect,Q631E
